Data published in the supplement of paper PMC7125110.
± gives the standard error. Fewer inactive variants are shown than the library holds.

B1: glmS ribozyme (parent)
chain: AUAAAAGCGCCAGAACUACAGAAAUGUAGUUGACGAGGAGGAGGUUUAUCGAAUUUUCGGCGGAUGCCUCCAAA

Assays:
Conditions in all cases: with glucosamine-6-phosphate
[1] = variants of: B1; test: self-cleavage kobs at 40 uM GlcN6P; higher = faster cleavage; RNA array
Summary of the method: (§1)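 Ribozyme variants carrying barcodes were transcribed in situ on sequenced MiSeq chips by E. coli RNA polymerase and tracked at 37 °C with a hybridised Cy3 probe. They were exposed to 40 μM to 10 mM glucosamine-6-phosphate in HEPES/KCl/Mg(OAc)2 buffer. kobs came from exponential decay fits of normalised per-tile medians, and kcat and KM from weighted Michaelis–Menten fits.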

[2] = variants of: B1; test: self-cleavage kobs at 640 uM GlcN6P; higher = faster cleavage; RNA array
Summary of the method: as §1

[3] = variants of: B1; test: self-cleavage kobs at 10000 uM GlcN6P; higher = faster cleavage; RNA array
Summary of the method: as §1

[4] = variants of: B1; test: self-cleavage kobs at 160 uM GlcN6P; higher = faster cleavage; RNA array
Summary of the method: as §1

[5] = variants of: B1; test: self-cleavage kobs at 2500 uM GlcN6P; higher = faster cleavage; RNA array
Summary of the method: as §1

U30A C61U
self-cleavage kobs at 40 uM GlcN6P [1]: < 1e-05 s⁻¹ | self-cleavage kobs at 640 uM GlcN6P [2]: < 1e-05 s⁻¹ | self-cleavage kobs at 10000 uM GlcN6P [3]: < 1e-05 s⁻¹

A6U G51U
self-cleavage kobs at 40 uM GlcN6P [1]: < 1e-05 s⁻¹ | self-cleavage kobs at 160 uM GlcN6P [4]: < 1e-05 s⁻¹ | self-cleavage kobs at 640 uM GlcN6P [2]: < 1e-05 s⁻¹ | self-cleavage kobs at 2500 uM GlcN6P [5]: < 1e-05 s⁻¹ | self-cleavage kobs at 10000 uM GlcN6P [3]: < 1e-05 s⁻¹

A12G G62A
self-cleavage kobs at 40 uM GlcN6P [1]: < 1e-05 s⁻¹ | self-cleavage kobs at 640 uM GlcN6P [2]: < 1e-05 s⁻¹ | self-cleavage kobs at 10000 uM GlcN6P [3]: < 1e-05 s⁻¹

C11U G29C C34A G37U
self-cleavage kobs at 40 uM GlcN6P [1]: < 1e-05 s⁻¹ | self-cleavage kobs at 640 uM GlcN6P [2]: < 1e-05 s⁻¹

G13C G40U
self-cleavage kobs at 40 uM GlcN6P [1]: < 1e-05 s⁻¹ | self-cleavage kobs at 160 uM GlcN6P [4]: < 1e-05 s⁻¹ | self-cleavage kobs at 640 uM GlcN6P [2]: < 1e-05 s⁻¹

C16U G35A
self-cleavage kobs at 40 uM GlcN6P [1]: < 1e-05 s⁻¹ | self-cleavage kobs at 160 uM GlcN6P [4]: < 1e-05 s⁻¹ | self-cleavage kobs at 640 uM GlcN6P [2]: < 1e-05 s⁻¹

U30A C70U
self-cleavage kobs at 40 uM GlcN6P [1]: 0.000214 ± 3.6e-05 s⁻¹ | self-cleavage kobs at 160 uM GlcN6P [4]: 0.000386 ± 7.4e-05 s⁻¹ | self-cleavage kobs at 640 uM GlcN6P [2]: 0.000765 ± 0.00011 s⁻¹ | self-cleavage kobs at 2500 uM GlcN6P [5]: 0.00125 ± 0.00027 s⁻¹ | self-cleavage kobs at 10000 uM GlcN6P [3]: 0.00358 ± 0.00063 s⁻¹

A33G U47A
self-cleavage kobs at 40 uM GlcN6P [1]: < 1e-05 s⁻¹ | self-cleavage kobs at 10000 uM GlcN6P [3]: < 1e-05 s⁻¹

G59C C61G
self-cleavage kobs at 40 uM GlcN6P [1]: < 1e-05 s⁻¹ | self-cleavage kobs at 160 uM GlcN6P [4]: < 1e-05 s⁻¹ | self-cleavage kobs at 10000 uM GlcN6P [3]: < 1e-05 s⁻¹

G43A G66U
self-cleavage kobs at 40 uM GlcN6P [1]: < 1e-05 s⁻¹ | self-cleavage kobs at 2500 uM GlcN6P [5]: < 1e-05 s⁻¹

G41C G43A U46G C68A C70U
self-cleavage kobs at 40 uM GlcN6P [1]: < 1e-05 s⁻¹

G32U A36G G41C A52U C67A
self-cleavage kobs at 40 uM GlcN6P [1]: < 1e-05 s⁻¹

A14G G44C C61A C68G
self-cleavage kobs at 40 uM GlcN6P [1]: < 1e-05 s⁻¹

G7C U56G
self-cleavage kobs at 40 uM GlcN6P [1]: < 1e-05 s⁻¹ | self-cleavage kobs at 160 uM GlcN6P [4]: < 1e-05 s⁻¹ | self-cleavage kobs at 640 uM GlcN6P [2]: < 1e-05 s⁻¹ | self-cleavage kobs at 2500 uM GlcN6P [5]: < 1e-05 s⁻¹ | self-cleavage kobs at 10000 uM GlcN6P [3]: < 1e-05 s⁻¹

G41U G60U U69C
self-cleavage kobs at 40 uM GlcN6P [1]: < 1e-05 s⁻¹ | self-cleavage kobs at 10000 uM GlcN6P [3]: < 1e-05 s⁻¹

G43C A48U C50U C58A C67U
self-cleavage kobs at 40 uM GlcN6P [1]: < 1e-05 s⁻¹ | self-cleavage kobs at 640 uM GlcN6P [2]: < 1e-05 s⁻¹

C10G G43C U46A G60A G62C
self-cleavage kobs at 40 uM GlcN6P [1]: < 1e-05 s⁻¹

C10U U45A C50U G66A
self-cleavage kobs at 40 uM GlcN6P [1]: < 1e-05 s⁻¹ | self-cleavage kobs at 10000 uM GlcN6P [3]: < 1e-05 s⁻¹

A15U G62A
self-cleavage kobs at 40 uM GlcN6P [1]: < 1e-05 s⁻¹ | self-cleavage kobs at 160 uM GlcN6P [4]: < 1e-05 s⁻¹ | self-cleavage kobs at 2500 uM GlcN6P [5]: < 1e-05 s⁻¹ | self-cleavage kobs at 10000 uM GlcN6P [3]: < 1e-05 s⁻¹

G13C G44U
self-cleavage kobs at 40 uM GlcN6P [1]: < 1e-05 s⁻¹ | self-cleavage kobs at 160 uM GlcN6P [4]: < 1e-05 s⁻¹ | self-cleavage kobs at 640 uM GlcN6P [2]: < 1e-05 s⁻¹ | self-cleavage kobs at 2500 uM GlcN6P [5]: < 1e-05 s⁻¹ | self-cleavage kobs at 10000 uM GlcN6P [3]: < 1e-05 s⁻¹

U31C U56G
self-cleavage kobs at 40 uM GlcN6P [1]: 0.000154 ± 1.9e-05 s⁻¹ | self-cleavage kobs at 160 uM GlcN6P [4]: 0.000413 ± 9.2e-05 s⁻¹ | self-cleavage kobs at 640 uM GlcN6P [2]: 0.000899 ± 0.00013 s⁻¹ | self-cleavage kobs at 2500 uM GlcN6P [5]: 0.00194 ± 0.0003 s⁻¹ | self-cleavage kobs at 10000 uM GlcN6P [3]: 0.00757 ± 0.00091 s⁻¹

G44C U45G C58G
self-cleavage kobs at 40 uM GlcN6P [1]: < 1e-05 s⁻¹

U55G C70U
self-cleavage kobs at 40 uM GlcN6P [1]: 0.0011 ± 0.00013 s⁻¹ | self-cleavage kobs at 160 uM GlcN6P [4]: 0.00151 ± 0.00031 s⁻¹ | self-cleavage kobs at 640 uM GlcN6P [2]: 0.0043 ± 0.0011 s⁻¹

A18C
self-cleavage kobs at 40 uM GlcN6P [1]: 0.00108 ± 0.0003 s⁻¹ | self-cleavage kobs at 160 uM GlcN6P [4]: 0.00647 ± 0.0023 s⁻¹ | self-cleavage kobs at 640 uM GlcN6P [2]: 0.0169 ± 0.0041 s⁻¹

C16A G41C
self-cleavage kobs at 40 uM GlcN6P [1]: < 1e-05 s⁻¹ | self-cleavage kobs at 160 uM GlcN6P [4]: < 1e-05 s⁻¹ | self-cleavage kobs at 640 uM GlcN6P [2]: < 1e-05 s⁻¹

G7U G60U
self-cleavage kobs at 40 uM GlcN6P [1]: < 1e-05 s⁻¹ | self-cleavage kobs at 160 uM GlcN6P [4]: < 1e-05 s⁻¹ | self-cleavage kobs at 640 uM GlcN6P [2]: < 1e-05 s⁻¹ | self-cleavage kobs at 10000 uM GlcN6P [3]: < 1e-05 s⁻¹

C11A A33G G43U G44A U54C
self-cleavage kobs at 40 uM GlcN6P [1]: < 1e-05 s⁻¹ | self-cleavage kobs at 640 uM GlcN6P [2]: < 1e-05 s⁻¹ | self-cleavage kobs at 10000 uM GlcN6P [3]: < 1e-05 s⁻¹

C16U A42G C61G
self-cleavage kobs at 40 uM GlcN6P [1]: < 1e-05 s⁻¹

A12U C70A
self-cleavage kobs at 40 uM GlcN6P [1]: 8.79e-05 ± 1.1e-05 s⁻¹ | self-cleavage kobs at 160 uM GlcN6P [4]: 0.000177 ± 2.9e-05 s⁻¹ | self-cleavage kobs at 640 uM GlcN6P [2]: 0.00047 ± 5.2e-05 s⁻¹ | self-cleavage kobs at 2500 uM GlcN6P [5]: 0.00049 ± 7e-05 s⁻¹ | self-cleavage kobs at 10000 uM GlcN6P [3]: 0.00179 ± 0.00036 s⁻¹

C16G U31A G35C G40A
self-cleavage kobs at 40 uM GlcN6P [1]: < 1e-05 s⁻¹ | self-cleavage kobs at 2500 uM GlcN6P [5]: < 1e-05 s⁻¹ | self-cleavage kobs at 10000 uM GlcN6P [3]: < 1e-05 s⁻¹

G32A A48C
self-cleavage kobs at 40 uM GlcN6P [1]: < 1e-05 s⁻¹ | self-cleavage kobs at 160 uM GlcN6P [4]: < 1e-05 s⁻¹

A33G G51A
self-cleavage kobs at 40 uM GlcN6P [1]: < 1e-05 s⁻¹ | self-cleavage kobs at 160 uM GlcN6P [4]: < 1e-05 s⁻¹ | self-cleavage kobs at 2500 uM GlcN6P [5]: < 1e-05 s⁻¹ | self-cleavage kobs at 10000 uM GlcN6P [3]: < 1e-05 s⁻¹

A6C G35A
self-cleavage kobs at 40 uM GlcN6P [1]: < 1e-05 s⁻¹ | self-cleavage kobs at 160 uM GlcN6P [4]: < 1e-05 s⁻¹ | self-cleavage kobs at 640 uM GlcN6P [2]: < 1e-05 s⁻¹ | self-cleavage kobs at 2500 uM GlcN6P [5]: < 1e-05 s⁻¹ | self-cleavage kobs at 10000 uM GlcN6P [3]: < 1e-05 s⁻¹

C34A A48C
self-cleavage kobs at 40 uM GlcN6P [1]: < 1e-05 s⁻¹ | self-cleavage kobs at 2500 uM GlcN6P [5]: < 1e-05 s⁻¹ | self-cleavage kobs at 10000 uM GlcN6P [3]: < 1e-05 s⁻¹

C10U C34A C50G U65A
self-cleavage kobs at 40 uM GlcN6P [1]: 8.28e-05 ± 3e-05 s⁻¹ | self-cleavage kobs at 2500 uM GlcN6P [5]: 6.81e-05 ± 2.9e-05 s⁻¹ | self-cleavage kobs at 10000 uM GlcN6P [3]: 0.000129 ± 2.8e-05 s⁻¹

C11A A12C G38U U69A
self-cleavage kobs at 40 uM GlcN6P [1]: 0.000405 ± 0.00012 s⁻¹ | self-cleavage kobs at 10000 uM GlcN6P [3]: 4.3e-05 ± 2e-05 s⁻¹

G38U G66A U69G
self-cleavage kobs at 40 uM GlcN6P [1]: 4.77e-05 ± 2e-05 s⁻¹ | self-cleavage kobs at 10000 uM GlcN6P [3]: 4.02e-05 ± 1.6e-05 s⁻¹

U54A C70G
self-cleavage kobs at 40 uM GlcN6P [1]: 6.49e-05 ± 8.1e-06 s⁻¹ | self-cleavage kobs at 160 uM GlcN6P [4]: 6.78e-05 ± 1e-05 s⁻¹ | self-cleavage kobs at 640 uM GlcN6P [2]: 0.00033 ± 5.7e-05 s⁻¹ | self-cleavage kobs at 2500 uM GlcN6P [5]: 0.000176 ± 2.2e-05 s⁻¹ | self-cleavage kobs at 10000 uM GlcN6P [3]: 0.000131 ± 1.5e-05 s⁻¹

A42C G51C
self-cleavage kobs at 40 uM GlcN6P [1]: < 1e-05 s⁻¹ | self-cleavage kobs at 160 uM GlcN6P [4]: < 1e-05 s⁻¹ | self-cleavage kobs at 640 uM GlcN6P [2]: < 1e-05 s⁻¹ | self-cleavage kobs at 10000 uM GlcN6P [3]: < 1e-05 s⁻¹

A14G C16A U17C A18U C19A A20C
self-cleavage kobs at 40 uM GlcN6P [1]: 0.000161 ± 4.5e-05 s⁻¹ | self-cleavage kobs at 10000 uM GlcN6P [3]: 0.00427 ± 0.00081 s⁻¹

G35C G60A
self-cleavage kobs at 40 uM GlcN6P [1]: < 1e-05 s⁻¹ | self-cleavage kobs at 640 uM GlcN6P [2]: < 1e-05 s⁻¹ | self-cleavage kobs at 10000 uM GlcN6P [3]: < 1e-05 s⁻¹

G41A G62A
self-cleavage kobs at 40 uM GlcN6P [1]: < 1e-05 s⁻¹ | self-cleavage kobs at 160 uM GlcN6P [4]: < 1e-05 s⁻¹ | self-cleavage kobs at 640 uM GlcN6P [2]: < 1e-05 s⁻¹ | self-cleavage kobs at 10000 uM GlcN6P [3]: < 1e-05 s⁻¹

G7A G9U C16A G37U U65C
self-cleavage kobs at 40 uM GlcN6P [1]: < 1e-05 s⁻¹

U31A U56A
self-cleavage kobs at 40 uM GlcN6P [1]: 0.000218 ± 3.2e-05 s⁻¹ | self-cleavage kobs at 640 uM GlcN6P [2]: 0.00221 ± 0.00061 s⁻¹ | self-cleavage kobs at 2500 uM GlcN6P [5]: 0.00123 ± 0.0005 s⁻¹ | self-cleavage kobs at 10000 uM GlcN6P [3]: 0.00967 ± 0.0011 s⁻¹

C11G U69G C71U
self-cleavage kobs at 40 uM GlcN6P [1]: 4.35e-05 ± 2.1e-05 s⁻¹
